# Experimental data: article PMC6891578, “An extracellular domain of the EsaA membrane component of the type VIIb secretion system: expression, purification and crystallization” (Acta Crystallographica. Section F, Structural Biology …, 2019)
# Molecular target: the molecule itself
# Assay: SEC-MALS; Superdex 200 10/300 GL, 150 mM NaCl, 20 mM Tris–HCl pH 8.0, 3 mM DTT; 100 µl of EsaAex_2 at 4 mg/ml loaded, 0.5 ml/min
protein,measurement,value
"EsaAex_2 (extracellular domain of EsaA, amino acids 275–689) (domain or fragment, EsaA, membrane component of the type VIIb secretion system, S. aureus USA300, amino acids 275–689 of the 1009-residue protein; The His tag was cleaved with TEV protease; also called purified extracellular domain; source: E. coli BL21 Star, purified (HisTrap, TEV cleavage, Ni-NTA flowthrough, SEC); not shown: His6, N-terminal, cleaved) MSQKDSVELDNYINALKQMDSQIDQQSSMQDTGKEEYKQTVKENLDKLREIIQSQESPFSKGMIEDYRKQLTESLQDELANNKDLQDALNSIKMNNAQFAENLEKQLHDDIVKEPDTDTTFIYNMSKQDFIAAGLNEGEANKYEAIVKEAKRYKNEYNLKKPLAEHINLTDYDNQVAQDTSSLINDGVKVQRTETIKSNDINQLTVATDPHFNFEGDIKINGKKYDIKDQSVQLDTSNKEYKVEVNGVAKLKKDAEKDFLKDKTMHLQLLFGQANRQDEPNDKKATSVVDVTLNHNLDGRLSKDALSQQLSALSRFDAHYKMYTDTKGREDKPFDNKRLIDMMVDQVINDMESFKDDKVAVLHQIDSMEENSDKLIDDILNNKKNTTKNKEDISKLIDQLENVKKTFAEEPQEPK",stoichiometry N,2
